Experimental data as given in IntAct's records for PubMed 17919502.

B1: Copper-transporting ATPase 2 (Homo sapiens), P35670 (parent)
chain: MPEQERQITAREGASRKILSKLSLPTRAWEPAMKKSFAFDNVGYEGGLDGLGPSSQVATSTVRILGMTCQSCVKSIEDRISNLKGIISMKVSLEQGSATVKYVPSVVCLQQVCHQIGDMGFEASIAEGKAASWPSRSLPAQEAVVKLRVEGMTCQSCVSSIEGKVRKLQGVVRVKVSLSNQEAVITYQPYLIQPEDLRDHVNDMGFEAAIKSKVAPLSLGPIDIERLQSTNPKRPLSSANQNFNNSETLGHQGSHVVTLQLRIDGMHCKSCVLNIEENIGQLLGVQSIQVSLENKTAQVKYDPSCTSPVALQRAIEALPPGNFKVSLPDGAEGSGTDHRSSSSHSPGSPPRNQVQGTCSTTLIAIAGMTCASCVHSIEGMISQLEGVQQISVSLAEGTATVLYNPSVISPEELRAAIEDMGFEASVVSESCSTNPLGNHSAGNSMVQTTDGTPTSVQEVAPHTGRLPANHAPDILAKSPQSTRAVAPQKCFLQIKGMTCASCVSNIERNLQKEAGVLSVLVALMAGKAEIKYDPEVIQPLEIAQFIQDLGFEAAVMEDYAGSDGNIELTITGMTCASCVHNIESKLTRTNGITYASVALATSKALVKFDPEIIGPRDIIKIIEEIGFHASLAQRNPNAHHLDHKMEIKQWKKSFLCSLVFGIPVMALMIYMLIPSNEPHQSMVLDHNIIPGLSILNLIFFILCTFVQLLGGWYFYVQAYKSLRHRSANMDVLIVLATSIAYVYSLVILVVAVAEKAERSPVTFFDTPPMLFVFIALGRWLEHLAKSKTSEALAKLMSLQATEATVVTLGEDNLIIREEQVPMELVQRGDIVKVVPGGKFPVDGKVLEGNTMADESLITGEAMPVTKKPGSTVIAGSINAHGSVLIKATHVGNDTTLAQIVKLVEEAQMSKAPIQQLADRFSGYFVPFIIIMSTLTLVVWIVIGFIDFGVVQRYFPNPNKHISQTEVIIRFAFQTSITVLCIACPCSLGLATPTAVMVGTGVAAQNGILIKGGKPLEMAHKIKTVMFDKTGTITHGVPRVMRVLLLGDVATLPLRKVLAVVGTAEASSEHPLGVAVTKYCKEELGTETLGYCTDFQAVPGCGIGCKVSNVEGILAHSERPLSAPASHLNEAGSLPAEKDAVPQTFSVLIGNREWLRRNGLTISSDVSDAMTDHEMKGQTAILVAIDGVLCGMIAIADAVKQEAALAVHTLQSMGVDVVLITGDNRKTARAIATQVGINKVFAEVLPSHKVAKVQELQNKGKKVAMVGDGVNDSPALAQADMGVAIGTGTDVAIEAADVVLIRNDLLDVVASIHLSKRTVRRIRINLVLALIYNLVGIPIAAGVFMPIGIVLQPWMGSAAMAASSVSVVLSSLQLKCYKKPDLERYEAQAHGHMKPLTASQVSVHIGMDDRWRDSPRATPWDQVSYVSQVSLSSLTSDKPSRHSAAADDDGDKWSLLLNGRDEEQYI

Variants of: B1
Conditions: with comd1_human COMMD1, Q8N668
Chain of comd1_human COMMD1, Q8N668 (Q8N668 whole entry): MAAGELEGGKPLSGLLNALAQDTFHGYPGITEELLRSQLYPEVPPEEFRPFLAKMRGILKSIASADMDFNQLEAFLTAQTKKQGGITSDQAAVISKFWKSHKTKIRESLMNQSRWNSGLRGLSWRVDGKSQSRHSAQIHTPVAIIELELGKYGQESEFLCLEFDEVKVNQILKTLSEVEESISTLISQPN

Variant | effect of a mutation on the interaction
G284V | increasing interaction strength
L492S | with no effect
N41S | increasing interaction strength
G85V | increasing interaction strength
A486S | increasing interaction strength
G515V | increasing interaction strength
G170V | increasing interaction strength
G386V | increasing interaction strength
Y532H | increasing interaction strength
E541K | increasing interaction strength

Next, values leading:

effect of a mutation on the interaction | Variant
decreasing interaction strength | M645R
decreasing interaction strength | G626A
decreasing interaction strength | A604P
decreasing interaction strength | D642H
with no effect | L641S
increasing interaction strength | G591D
increasing interaction strength | R616W
increasing interaction strength | R616Q
